US20250320281A1

Tests used:
Experiment in all cases: cell-based or functional assay
[1] = molecular target: HIV-1 envelope glycoprotein (Env) of isolate MGRM-D-001, clade D (HIV-1)
[2] = molecular target: HIV-1 envelope glycoprotein (Env) of isolate 92RW020, clade A (HIV-1)
[3] = molecular target: HIV-1 envelope glycoprotein (Env) of isolate 93UG077, clade A (HIV-1)
[4] = molecular target: HIV-1 envelope glycoprotein (Env) of isolate JRCSF, clade B (HIV-1) (UniProt P20871)
[5] = molecular target: HIV-1 envelope glycoprotein (Env) of isolate MGRM-AG-005, clade AG (HIV-1)
[6] = molecular target: HIV-1 envelope glycoprotein (Env) of isolate APV17, clade B (HIV-1)
[7] = molecular target: HIV-1 envelope glycoprotein (Env) of isolate 94UG103, clade A (HIV-1)
[8] = molecular target: HIV-1 envelope glycoprotein (Env) of isolate 92UG024, clade D (HIV-1)
[9] = molecular target: HIV-1 envelope glycoprotein (Env) of isolate CMU02, clade AE (HIV-1)
[10] = molecular target: HIV-1 envelope glycoprotein (Env) of isolate MGRM-C-026, clade C (HIV-1)
[11] = molecular target: HIV-1 envelope glycoprotein (Env) of isolate MGRM-A-010, clade A (HIV-1)
[12] = molecular target: HIV-1 envelope glycoprotein (Env) of isolate 92TH021, clade AE (HIV-1)
[13] = molecular target: HIV-1 envelope glycoprotein (Env) of isolate MGRM-D-018, clade D (HIV-1)
[14] = molecular target: HIV-1 envelope glycoprotein (Env) of isolate MGRM-C-027, clade C (HIV-1)
[15] = molecular target: HIV-1 envelope glycoprotein (Env) of isolate NL43, clade B (HIV-1)
[16] = molecular target: aMLV envelope protein (negative control pseudovirus)
[17] = molecular target: HIV-1 envelope glycoprotein (Env) of isolate 92BR020, clade B (HIV-1)
[18] = molecular target: HIV-1 envelope glycoprotein (Env) of isolate MGRM-C-028, clade C (HIV-1)
[19] = molecular target: HIV-1 envelope glycoprotein (Env) of isolate APV6, clade B (HIV-1)
[20] = molecular target: HIV-1 envelope glycoprotein (Env) of isolate 93IN905, clade C (HIV-1)
[21] = molecular target: HIV-1 envelope glycoprotein (Env) of isolate JRFL, clade B (HIV-1)
[22] = molecular target: HIV-1 envelope glycoprotein (Env) of isolate APV13, clade B (HIV-1)
[23] = molecular target: HIV-1 envelope glycoprotein (Env) of isolate 92UG005, clade D (HIV-1)

B1: PGT-135 (5343_B08; 5344_E16) human monoclonal anti-HIV antibody (antibody, V domains shown)
VH: QLQMQESGPGLVKPSETLSLSCTVSGDSIRGGEWGDKDYHWGWVRHSAGKGLEWIGSIHWRGTTHYKESLRRRVSMSIDTSRNWFSLRLASVTAADTAVYFCARHRHHDVFMLVPIAGWFDVWGPGVQVTVSS
VL: EIVMTQSPDTLSVSPGETVTLSCRASQNINKNLAWYQYKPGQSPRLVIFETYSKIAAFPARFVASGSGTEFTLTINNMQSEDVAVYYCQQYEEWPRTFGQGTKVDIK
Work on B1 yielded an IC50 (neutralization of pseudovirus) [1] of over 10 µg/mL, an IC80 (neutralization of pseudovirus) [1] of over 10 µg/mL and an IC90 (neutralization of pseudovirus) [1] of over 10 µg/mL. It also gave an IC95 (neutralization of pseudovirus) [1] of over 10 µg/mL, an IC50 (neutralization of pseudovirus) [2] of 0.157 µg/mL and an IC80 (neutralization of pseudovirus) [2] of 3.46 µg/mL. For the same binder, the IC90 (neutralization of pseudovirus) [2] was over 10 µg/mL, the IC95 (neutralization of pseudovirus) [2] was over 10 µg/mL and the IC50 (neutralization of pseudovirus) [3] was over 10 µg/mL. The IC80 (neutralization of pseudovirus) [3] was over 10 µg/mL, the IC90 (neutralization of pseudovirus) [3] was over 10 µg/mL and the IC95 (neutralization of pseudovirus) [3] was over 10 µg/mL. The IC50 (neutralization of pseudovirus) [4] was 0.113 µg/mL, the IC80 (neutralization of pseudovirus) [4] was 0.503 µg/mL and the IC90 (neutralization of pseudovirus) [4] was 1.47 µg/mL. It also gave an IC95 (neutralization of pseudovirus) [4] of 8.3 µg/mL, an IC50 (neutralization of pseudovirus) [5] of over 10 µg/mL and an IC80 (neutralization of pseudovirus) [5] of over 10 µg/mL. The IC90 (neutralization of pseudovirus) [5] was over 10 µg/mL, the IC95 (neutralization of pseudovirus) [5] was over 10 µg/mL and the IC50 (neutralization of pseudovirus) [6] was over 10 µg/mL. It also gave an IC80 (neutralization of pseudovirus) [6] of over 10 µg/mL, an IC90 (neutralization of pseudovirus) [6] of over 10 µg/mL and an IC95 (neutralization of pseudovirus) [6] of over 10 µg/mL. The IC50 (neutralization of pseudovirus) [7] was over 10 µg/mL, the IC80 (neutralization of pseudovirus) [7] was over 10 µg/mL and the IC90 (neutralization of pseudovirus) [7] was over 10 µg/mL. It also gave an IC95 (neutralization of pseudovirus) [7] of over 10 µg/mL, an IC50 (neutralization of pseudovirus) [8] of 0.0139 µg/mL and an IC80 (neutralization of pseudovirus) [8] of 0.054 µg/mL. For the same binder, the IC90 (neutralization of pseudovirus) [8] was 0.122 µg/mL, the IC95 (neutralization of pseudovirus) [8] was 0.267 µg/mL and the IC50 (neutralization of pseudovirus) [9] was over 10 µg/mL. It also gave an IC80 (neutralization of pseudovirus) [9] of over 10 µg/mL, an IC90 (neutralization of pseudovirus) [9] of over 10 µg/mL and an IC95 (neutralization of pseudovirus) [9] of over 10 µg/mL. For the same binder, the IC50 (neutralization of pseudovirus) [10] was 0.0123 µg/mL, the IC80 (neutralization of pseudovirus) [10] was 0.0562 µg/mL and the IC90 (neutralization of pseudovirus) [10] was 0.139 µg/mL. It also gave an IC95 (neutralization of pseudovirus) [10] of 0.331 µg/mL, an IC50 (neutralization of pseudovirus) [11] of over 10 µg/mL and an IC80 (neutralization of pseudovirus) [11] of over 10 µg/mL. It also gave an IC90 (neutralization of pseudovirus) [11] of over 10 µg/mL, an IC95 (neutralization of pseudovirus) [11] of over 10 µg/mL and an IC50 (neutralization of pseudovirus) [12] of over 10 µg/mL. The IC80 (neutralization of pseudovirus) [12] was over 10 µg/mL, the IC90 (neutralization of pseudovirus) [12] was over 10 µg/mL and the IC95 (neutralization of pseudovirus) [12] was over 10 µg/mL. The IC50 (neutralization of pseudovirus) [13] was 0.0433 µg/mL, the IC80 (neutralization of pseudovirus) [13] was 0.2 µg/mL and the IC90 (neutralization of pseudovirus) [13] was over 10 µg/mL. The IC95 (neutralization of pseudovirus) [13] was over 10 µg/mL, the IC50 (neutralization of pseudovirus) [14] was over 10 µg/mL and the IC80 (neutralization of pseudovirus) [14] was over 10 µg/mL. For the same binder, the IC90 (neutralization of pseudovirus) [14] was over 10 µg/mL, the IC95 (neutralization of pseudovirus) [14] was over 10 µg/mL and the IC50 (neutralization of pseudovirus) [15] was 6.79 µg/mL. It also gave an IC80 (neutralization of pseudovirus) [15] of over 10 µg/mL, an IC90 (neutralization of pseudovirus) [15] of over 10 µg/mL and an IC95 (neutralization of pseudovirus) [15] of over 10 µg/mL. It also gave an IC50 (neutralization of pseudovirus) [16] of over 10 µg/mL, an IC80 (neutralization of pseudovirus) [16] of over 10 µg/mL and an IC90 (neutralization of pseudovirus) [16] of over 10 µg/mL. For the same binder, the IC95 (neutralization of pseudovirus) [16] was over 10 µg/mL, the IC50 (neutralization of pseudovirus) [17] was 0.104 µg/mL and the IC80 (neutralization of pseudovirus) [17] was 0.253 µg/mL. For the same binder, the IC90 (neutralization of pseudovirus) [17] was 0.43 µg/mL, the IC95 (neutralization of pseudovirus) [17] was 0.72 µg/mL and the IC50 (neutralization of pseudovirus) [18] was 2.16 µg/mL. It also gave an IC80 (neutralization of pseudovirus) [18] of over 10 µg/mL, an IC90 (neutralization of pseudovirus) [18] of over 10 µg/mL and an IC95 (neutralization of pseudovirus) [18] of over 10 µg/mL. The IC50 (neutralization of pseudovirus) [19] was over 10 µg/mL, the IC80 (neutralization of pseudovirus) [19] was over 10 µg/mL and the IC90 (neutralization of pseudovirus) [19] was over 10 µg/mL. For the same binder, the IC95 (neutralization of pseudovirus) [19] was over 10 µg/mL, the IC50 (neutralization of pseudovirus) [20] was 0.0183 µg/mL and the IC80 (neutralization of pseudovirus) [20] was 0.0648 µg/mL. For the same binder, the IC90 (neutralization of pseudovirus) [20] was 0.136 µg/mL, the IC95 (neutralization of pseudovirus) [20] was 0.268 µg/mL and the IC50 (neutralization of pseudovirus) [21] was over 10 µg/mL. It also gave an IC80 (neutralization of pseudovirus) [21] of over 10 µg/mL, an IC90 (neutralization of pseudovirus) [21] of over 10 µg/mL and an IC95 (neutralization of pseudovirus) [21] of over 10 µg/mL. The IC50 (neutralization of pseudovirus) [22] was 0.545 µg/mL, the IC80 (neutralization of pseudovirus) [22] was over 10 µg/mL and the IC90 (neutralization of pseudovirus) [22] was over 10 µg/mL. The IC95 (neutralization of pseudovirus) [22] was over 10 µg/mL, the IC50 (neutralization of pseudovirus) [23] was over 10 µg/mL and the IC80 (neutralization of pseudovirus) [23] was over 10 µg/mL. The IC90 (neutralization of pseudovirus) [23] was over 10 µg/mL and the IC95 (neutralization of pseudovirus) [23] was over 10 µg/mL.
